Assays:
Settings in all cases: 20 nM; 72 h
MCF10A [1] = assay: percent viability (nuclei count relative to siNT); higher = more viable cells
Procedure: (§1)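 After 72 h, cells were fixed and stained with Hoechst and anti-fibrillarin, and nucleoli per nucleus were counted with CellProfiler. Values are plate-adjusted percent effect for the one-nucleolus and 5+ nucleoli phenotypes, normalised to siNT (0%) and to the positive controls siNOL11 or siKIF11 (100%), as the mean of biological triplicates. Percent viability is the nuclei count relative to siNT.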

MCF10A [2] = assay: 5+ nucleoli phenotype percent effect (relative to siNT 0% and siKIF11 100%); higher = more cells with five or more nucleoli
Procedure: as §1

MCF10A [3] = assay: one-nucleolus phenotype percent effect (relative to siNT 0% and siNOL11 100%); higher = more cells with one nucleolus (ribosome biogenesis inhibition)
Procedure: as §1

| Sequence | percent viability (MCF10A [1]) | 5+ nucleoli phenotype percent effect (MCF10A [2]) | one-nucleolus phenotype percent effect (MCF10A [3]) |
| --- | --- | --- | --- |
| GUGGUCUCUUGGCCCCCAG [hsa-miR-6848-3p] | 77.3% | 34.8% | -17.9% |
| UCCAGCAUCAGUGAUUUUGUUG [hsa-miR-338-3p] | 98.2% | 26.3% | -13.2% |
| AAGCCUCUGUCCCCACCCCAG [hsa-miR-6819-3p] | 70.8% | -5.25% | -17.6% |
| CAGCAGUCCCUCCCCCUG [hsa-miR-4274] | 34.1% | 7.99% | 6.47% |
| GUGUUGAAACAAUCUCUACUG [hsa-miR-653] | 169% | 38.1% | -22.2% |
| UUGAAGAGGAGGUGCUCUGUAGC [hsa-miR-4709-3p] | 28% | -33% | 29.5% |
| UGGAUGUGGAAGGAGUUAUCU [hsa-miR-4764-5p] | 7.49% | -8.02% | -0.862% |
| UAAAUAGAGUAGGCAAAGGACA [hsa-miR-3121-3p] | 49.3% | 15.6% | -18% |
| GAUAUCAGCUCAGUAGGCACCG [hsa-miR-3074-3p] | 25.1% | 2.53% | -9.52% |
| UGGAUUUCUUUGUGAAUCACCA [hsa-miR-876-5p] | 143% | 24.8% | -21.7% |
| GUGAGCCAGUGGAAUGGAGAGG [hsa-miR-6807-5p] | 74.2% | 16.4% | -20.6% |
| AGGAGGCAUCUUGAGAAAUGGA [hsa-miR-3612] | 16.9% | 5.34% | 33.4% |
| UCGGGCCUGGGGUUGGGGGAGC [hsa-miR-6749-5p] | 37.7% | 21.9% | -10.1% |
| UAGAUCUUUGACUCUGGCAGUCUCCAGG [hsa-miR-7161-3p] | 87.7% | 28.4% | -23.9% |
| CGGGUAGAGAGGGCAGUGGGAGG [hsa-miR-197-5p] | 44.8% | 48.2% | -25.5% |
| UCUGUAUUCUCCUUUGCCUGCAG [hsa-miR-4742-3p] | 24.4% | 3.24% | 6.5% |
| UCCCCAACCCCUGCCCGCAG [hsa-miR-6793-3p] | 27.6% | -15.2% | 13.9% |
| GGCUUGCAUGGGGGACUGG [hsa-miR-4327] | 40.2% | 7.45% | 12.4% |
| CUUAUCAGAUUGUAUUGUAAUU [hsa-miR-374a-3p] | 160% | 33% | -24.3% |
| UGUAAACAUCCUACACUCUCAGC [hsa-miR-30c-5p] | 69.4% | 21.9% | 3.37% |

| Sequence | percent viability (MCF10A [1]) | 5+ nucleoli phenotype percent effect (MCF10A [2]) | one-nucleolus phenotype percent effect (MCF10A [3]) |
| --- | --- | --- | --- |
| UUCUGGAUAUGAAGACAAUCAA [hsa-miR-4782-5p] | 16.3% | -38.6% | 44.9% |
| UCCAGGGAGACAGUGUGUGAG [hsa-miR-7113-5p] | 32.5% | -2.05% | 23.5% |
| UGUGACCCUAGAAUAAUUAC [hsa-miR-7973] | 29.4% | -4.82% | -2.95% |
| AGGCUGUGAUGCUCUCCUGAGCCC [hsa-miR-7974] | 22.8% | -12% | 30.5% |
| UAACAGUCUCCAGUCACGGCC [hsa-miR-212-3p] | 219% | 29.7% | -19.5% |
| GUGAGUCUCUAAGAAAAGAGGA [hsa-miR-627] | 62.9% | 7.75% | -10.4% |
| GAGUGGAUAGGGGAGUGUGUGGA [hsa-miR-6849-5p] | 126% | 31% | -18.4% |
| CAUGGGGUAGGGCAGAGUAGG [hsa-miR-6890-5p] | 43.6% | -15.7% | 21.6% |
| AAAGGUAAUUGCAGUUUUUCCC [hsa-miR-570-5p] | 95.2% | 56.8% | -30.8% |
| GAUUGAGACUAGUAGGGCUAGGC [hsa-miR-4461] | 31.4% | -3.16% | 3.4% |
| UCUCCCAACCCUUGUACCAGUG [hsa-miR-150-5p] | 224% | 26.7% | -2.57% |
| GUCCAGUUUUCCCAGGAAUCCCU [hsa-miR-145-5p] | 70.4% | -1.55% | -4.84% |
| GGAGACUGAUGAGUUCCCGGGA [hsa-miR-873-3p] | 106% | -5.61% | -6.55% |
| UUCUGAGCUGAGGACAG [hsa-miR-4303] | 45.5% | -10.7% | -2.54% |
| UAUGUCCCAUCCCUCCAUCA [hsa-miR-6834-3p] | 22.7% | -28.7% | 21.4% |
| UAACUGGUUGAACAACUGAACC [hsa-miR-582-3p] | 106% | 31.1% | -29.8% |
| ACUGUCACUUCUCUGCCCAUAG [hsa-miR-6773-3p] | 47.1% | -17.8% | 13.5% |
| UCAGUGCAUGACAGAACUUGG [hsa-miR-152] | 145% | 69.9% | -26.4% |
| UUCACAUUGUGCUACUGUCUGC [hsa-miR-130a-5p] | 124% | 19% | -14.6% |
| CGGCAACAAGAAACUGCCUGAG [hsa-miR-196a-3p] | 25.1% | -32.7% | 37.8% |

| Sequence | percent viability (MCF10A [1]) | 5+ nucleoli phenotype percent effect (MCF10A [2]) | one-nucleolus phenotype percent effect (MCF10A [3]) |
| --- | --- | --- | --- |
| UGUCUUCUCUCCUCCCAAACAG [hsa-miR-6740-3p] | 9.9% | -27.6% | 42.8% |
| UGGGCUCAGGGUACAAAGGUU [hsa-miR-4437] | 24.3% | -5.83% | 28.8% |
| UGGACCUCUCCUCCCCAG [hsa-miR-6861-3p] | 40.5% | 7.71% | 2.35% |
| CGCGGGCGCUCCUGGCCGCCGCC [hsa-miR-4767] | 58.8% | 26.9% | -12.9% |
| UGAGGGGCAGAGAGCGAGACUUU [hsa-miR-423-5p] | 41.6% | -10.7% | 13.3% |
| UCGGCCUGGGGAGGAGGAAGGG [hsa-miR-7107-5p] | 77.4% | 26.1% | -28.2% |
| UUCCUAUGCAUAUACUUCUUUG [hsa-miR-202-5p] | 72.7% | 12.8% | -12.4% |
| AACAUAGAGGAAAUUCCACGU [hsa-miR-376c-3p] | 99.8% | 55.4% | -18.9% |
| UCCUGCCUUCCUCUGCACCAG [hsa-miR-6747-3p] | 27% | -28.9% | 16% |
| AGCUUCCAUGACUCCUGAUGGA [hsa-miR-2115-5p] | 137% | -3.91% | -7.01% |
| UAUAGGGAUUGGAGCCGUGGCG [hsa-miR-135a-3p] | 63.5% | 4.73% | 13.5% |
| CAGGCAGUGACUGUUCAGACGUC [hsa-miR-2682-5p] | 12.3% | -23.5% | 51.4% |
| UCUCUUCAUCUACCCCCCAG [hsa-miR-6515-3p] | 85.2% | -2.57% | 4.68% |
| UCUGCAAGUGUCAGAGGCGAGG [hsa-miR-2276] | 160% | 38.4% | -15.8% |
| ACCAGGGCCAGCAGGGAAUGU [hsa-miR-6837-5p] | 19.9% | -15% | 33.6% |
| CUAUAUAUCAAACAUAUUCCU [hsa-miR-190a-3p] | 67.4% | 35.7% | -19.5% |
| UGGGGCGGAGCUUCCGGAG [hsa-miR-3180] | 25.6% | -11.7% | 10.4% |
| AAAAACCACAAUUACUUUUGCACCA [hsa-miR-548t-3p] | 157% | 39.3% | -19.6% |
| AGUGAAUGAUGGGUUCUGACC [hsa-miR-1257] | 25.9% | -35.8% | 45.3% |

From the supplement of paper PMC10899765
